{"source": "paper doi:10.1101/773556", "experiment_in_all_cases": "ITC", "key": {"[1]": {"target": "EF-Tu methyltransferase EftM from P. aeruginosa strain PAHM4 (EftM^HM4), wild-type (Pseudomonas aeruginosa strain PAHM4)"}, "[2]": {"target": "EftM^HM4 W170F (Pseudomonas aeruginosa strain PAHM4)"}, "[3]": {"target": "EF-Tu methyltransferase EftM from P. aeruginosa strain PAHM4 (EftM^HM4), wild-type (Pseudomonas aeruginosa strain PAHM4)", "remark": "listed apart in the source"}, "[4]": {"target": "EftM^HM4 W196F (Pseudomonas aeruginosa strain PAHM4)"}}, "note": "pKd: −log10 of the molar value. Like-named read-outs stand apart in the source and are kept apart here.", "data": [{"substance": "translation elongation factor EF-Tu of P. aeruginosa PAO1 (tufB), wild-type (from UniProt P09591 1-397) (natural protein)", "values": [{"measurement": "pKd", "setting": "[1]", "value": 4.57}, {"measurement": "fold decrease of dH against wild-type EftM^HM4", "setting": "[2]", "value": "> 10", "unit": "fold"}, {"measurement": "pKd", "setting": "[3]", "value": 4.55}, {"measurement": "fold decrease of dH against wild-type EftM^HM4", "setting": "[4]", "value": "> 10", "unit": "fold"}]}]}
